Measured values reported in patent US12221483 (CHINA MEDICAL UNIVERSITY HOSPITAL, dated 2025).

Biological target: T1, recombinant CD3E protein (UniProt P07766 23-126, limits assumed)
T1 construct: also called CD3ε; CD3 epsilon
Assay: SPR (BIAcore T200); fusion protein on exosomes (1x10^11) coated on CM5 chip, recombinant CD3E protein as analyte at 700-21.9 nM; fusion protein (1×10^11) coated on CM5 chip; recombinant CD3E as analyte

T1 sequence (P07766 23-126 limits assumed): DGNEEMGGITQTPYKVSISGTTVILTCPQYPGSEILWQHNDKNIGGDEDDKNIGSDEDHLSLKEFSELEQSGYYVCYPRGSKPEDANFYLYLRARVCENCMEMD

Kd: 2.1 nM
B1: fusion protein comprising anti-CD3 single domain antibody and exosomal protein CD63 (other)
chain: MAVEGGMKCVKFLLYVLLLAFCACAVGLIAVGVGAQLVLSQTIIQGATPGSLLPVVIIAVGVFLFLVAFVGCCGACKENYCLMITFAIFLSLIMLVEVAAAIAGYVFRDKVMSEFNNNFRQQMENYPKNNHTASAHVQLVESGGGSVQAGGSLRLSCTVSGVIFKNEYMGWFRQAPGKEREGVAAASPGGTITYYGDSVKGRFTISRDNAKNTVYLQMNRLKPEDTAMYYCALDPSTTSWSIIRHGPSLWRYSGRGTQVTVSSGSSILDRMQADFKCCGAANYTDWEKIPSMSKNRVPDSCCINVTVGCGINFNEKAIHKEGCVEKIGGWLRKNVLVVAAAALGIAFVEVLGIVFACCLVKSIRSGYEVM
notes: in the SPR assay the exosomes carrying the fusion protein (1x10^11) were coated on a CM5 chip; also called anti-CD3 single domain antibody-CD63 chimeric protein; CD3ε Nb-Exo
